Biological target: OsBOR3_(Δ1-642) (Oryza sativa)
Assay: cryo-EM structure

stoichiometry N: 2
Substance: OsBOR3_(Δ1-642) (domain or fragment)
